Laboratory results as given in patent US20210221886A1.

Target: human CD47 antigen (human) (UniProt Q08722)
Assay: flow cytometry on human red blood cells at the maximal binding concentration; reference Hu5F9

percent reduction of RBC binding with respect to Hu5F9: 80%
Substance: anti-CD47 IgG4 AO-176 (antibody)
